Legend:
Assay in all cases: cell-based or functional assay
TAO1(h) = target: T1, TAO1(h) (human, UniProt Q7L7X3 1-320, limits assumed)
T1 sequence (looked up): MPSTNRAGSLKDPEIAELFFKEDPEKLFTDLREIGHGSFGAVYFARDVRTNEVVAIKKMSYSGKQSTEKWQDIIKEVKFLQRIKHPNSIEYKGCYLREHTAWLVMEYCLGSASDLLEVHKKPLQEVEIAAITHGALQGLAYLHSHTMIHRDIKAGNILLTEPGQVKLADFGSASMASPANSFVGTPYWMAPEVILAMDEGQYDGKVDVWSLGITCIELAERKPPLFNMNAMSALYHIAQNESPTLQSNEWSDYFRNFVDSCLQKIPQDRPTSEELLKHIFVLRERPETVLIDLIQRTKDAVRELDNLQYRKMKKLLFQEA

DCAMKL2(h) = target: T2, DCAMKL2(h) (human, UniProt Q8N568 372-766, limits assumed)
T2 sequence (looked up): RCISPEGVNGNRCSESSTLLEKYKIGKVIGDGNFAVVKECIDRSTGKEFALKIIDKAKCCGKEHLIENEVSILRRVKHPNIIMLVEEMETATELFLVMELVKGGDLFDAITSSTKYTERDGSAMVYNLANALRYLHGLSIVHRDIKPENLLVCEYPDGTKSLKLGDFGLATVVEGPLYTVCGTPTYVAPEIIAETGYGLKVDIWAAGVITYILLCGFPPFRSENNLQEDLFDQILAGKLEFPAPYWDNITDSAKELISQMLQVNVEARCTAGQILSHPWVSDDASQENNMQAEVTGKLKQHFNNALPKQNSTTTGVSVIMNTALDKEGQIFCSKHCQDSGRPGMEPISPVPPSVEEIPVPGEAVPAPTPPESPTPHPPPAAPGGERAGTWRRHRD

DAPK2(h) = DAPK2(h) (human, UniProt Q9UIK4 1-370, limits assumed)
Sequence of DAPK2(h) (Q9UIK4 whole entry): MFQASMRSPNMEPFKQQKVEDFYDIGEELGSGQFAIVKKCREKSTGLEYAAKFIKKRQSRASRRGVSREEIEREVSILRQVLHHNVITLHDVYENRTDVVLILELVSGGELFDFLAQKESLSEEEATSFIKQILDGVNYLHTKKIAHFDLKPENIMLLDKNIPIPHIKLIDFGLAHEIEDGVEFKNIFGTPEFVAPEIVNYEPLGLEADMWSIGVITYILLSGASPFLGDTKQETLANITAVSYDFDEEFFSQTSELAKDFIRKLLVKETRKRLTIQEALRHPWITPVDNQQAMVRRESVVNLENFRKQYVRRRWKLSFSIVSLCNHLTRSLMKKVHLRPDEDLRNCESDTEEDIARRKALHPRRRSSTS

Fms(Y969C)(h) = target: T3, Fms(Y969C)(h) (human, UniProt P07333 538-972, limits assumed)
T3 sequence (looked up): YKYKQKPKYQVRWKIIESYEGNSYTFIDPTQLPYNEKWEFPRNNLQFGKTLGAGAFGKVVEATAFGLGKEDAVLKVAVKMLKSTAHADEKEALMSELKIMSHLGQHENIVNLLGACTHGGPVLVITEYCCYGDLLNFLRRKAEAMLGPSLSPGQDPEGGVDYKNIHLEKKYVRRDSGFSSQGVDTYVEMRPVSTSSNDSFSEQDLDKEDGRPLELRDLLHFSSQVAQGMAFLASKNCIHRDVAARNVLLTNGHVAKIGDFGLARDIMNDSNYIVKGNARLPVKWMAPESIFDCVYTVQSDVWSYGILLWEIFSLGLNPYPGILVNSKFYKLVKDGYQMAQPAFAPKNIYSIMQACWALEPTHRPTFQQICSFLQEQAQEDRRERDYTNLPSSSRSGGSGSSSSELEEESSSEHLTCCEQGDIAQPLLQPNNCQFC

Flt1(h) = target: T4, Flt1(h) (human, UniProt P17948 781-1338, limits assumed)
T4 sequence (looked up): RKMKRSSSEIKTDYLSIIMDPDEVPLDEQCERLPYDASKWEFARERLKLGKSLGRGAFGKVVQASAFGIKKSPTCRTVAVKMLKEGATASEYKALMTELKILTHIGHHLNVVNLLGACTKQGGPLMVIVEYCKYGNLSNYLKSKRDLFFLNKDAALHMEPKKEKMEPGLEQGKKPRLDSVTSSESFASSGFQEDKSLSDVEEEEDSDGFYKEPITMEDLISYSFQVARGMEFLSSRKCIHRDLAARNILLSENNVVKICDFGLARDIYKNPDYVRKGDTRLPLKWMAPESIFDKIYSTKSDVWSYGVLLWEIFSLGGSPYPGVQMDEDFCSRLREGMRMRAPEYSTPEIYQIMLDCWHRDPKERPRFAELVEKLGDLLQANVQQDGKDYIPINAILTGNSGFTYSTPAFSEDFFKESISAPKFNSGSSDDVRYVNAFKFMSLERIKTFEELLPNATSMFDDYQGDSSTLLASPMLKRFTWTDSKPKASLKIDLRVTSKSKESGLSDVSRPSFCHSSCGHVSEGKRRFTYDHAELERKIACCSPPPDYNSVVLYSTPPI

ULK3(h) = target: T5, ULK3(h) (human, UniProt Q6PHR2 1-472, limits assumed)
T5 sequence (looked up): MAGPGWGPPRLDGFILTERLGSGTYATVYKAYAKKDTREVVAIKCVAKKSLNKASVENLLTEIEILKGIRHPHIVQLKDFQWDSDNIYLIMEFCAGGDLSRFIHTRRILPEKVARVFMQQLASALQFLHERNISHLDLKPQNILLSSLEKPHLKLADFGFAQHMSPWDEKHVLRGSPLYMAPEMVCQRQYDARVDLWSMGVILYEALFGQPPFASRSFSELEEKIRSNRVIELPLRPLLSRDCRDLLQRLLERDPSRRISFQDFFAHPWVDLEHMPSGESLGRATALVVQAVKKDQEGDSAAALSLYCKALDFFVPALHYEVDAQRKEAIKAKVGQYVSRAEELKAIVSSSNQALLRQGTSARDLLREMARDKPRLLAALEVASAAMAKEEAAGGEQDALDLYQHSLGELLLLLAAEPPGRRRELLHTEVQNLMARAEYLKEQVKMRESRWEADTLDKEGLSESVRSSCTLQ

PDK1(h) = target: T6, PDK1(h) (human, UniProt O15530 1-556, limits assumed)
T6 sequence (looked up): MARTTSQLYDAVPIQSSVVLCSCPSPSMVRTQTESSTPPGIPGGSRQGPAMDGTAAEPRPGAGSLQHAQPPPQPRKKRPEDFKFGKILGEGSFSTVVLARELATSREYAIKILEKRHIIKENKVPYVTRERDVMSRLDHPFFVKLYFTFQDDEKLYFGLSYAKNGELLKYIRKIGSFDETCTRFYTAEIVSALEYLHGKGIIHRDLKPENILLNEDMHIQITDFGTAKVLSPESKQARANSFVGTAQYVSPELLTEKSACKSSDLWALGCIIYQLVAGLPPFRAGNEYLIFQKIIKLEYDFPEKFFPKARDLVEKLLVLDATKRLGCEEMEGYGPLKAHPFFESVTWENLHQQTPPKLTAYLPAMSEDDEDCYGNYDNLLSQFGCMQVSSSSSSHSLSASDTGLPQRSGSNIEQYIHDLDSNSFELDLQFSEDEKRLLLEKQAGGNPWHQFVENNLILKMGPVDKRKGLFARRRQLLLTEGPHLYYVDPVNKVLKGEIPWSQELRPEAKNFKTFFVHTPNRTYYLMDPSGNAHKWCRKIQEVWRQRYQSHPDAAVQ

B1: MMI-0300 (peptide)
peptide: FAKLAARLYRKALARQLGVAA
% activity (TAO1(h)): 82% | % activity (DCAMKL2(h)): 81% | % activity (DAPK2(h)): 32% | % activity (Fms(Y969C)(h)): 72% | % activity (Flt1(h)): 69% | % activity (ULK3(h)): 167% | % activity (PDK1(h)): 135%

B2: MMI-0400 (peptide)
peptide: KAFAKLAARLYRKALARQLGVAA
% activity (TAO1(h)): 73% | % activity (DCAMKL2(h)): 70% | % activity (DAPK2(h)): 16% | % activity (Fms(Y969C)(h)): 91% | % activity (Flt1(h)): 48% | % activity (ULK3(h)): 147% | % activity (PDK1(h)): 159%

From US20160200782A1 (MOERAE MATRIX, published 2016)
